Results as given in paper PMC3203615.

Biological target: isolated C-terminal domain (CTD, 213-288) of HIV-1 integrase (HIV-1)
Assay: SEC

isolated C-terminal domain (CTD, 213-288) of HIV-1 integrase (domain or fragment)
stoichiometry N: 2
